The text below walks through data of patent US12428656B2, “Nitrilase mutant and application thereof in the synthesis of 1-cyanocyclohexyl acetic acid” (priority 2020, dated 2025).

In data set [1] the test system is N#CCC1(C#N)CCCCC1. Briefly: Kinetic parameters of the nitrilase, purified AcN-F168V (parent). The following applies: other: AcN-F168V, pH 7.0, 20 mM phosphate buffer, 45° C., 6.75-40.49 mM substrate. Format: biochemical, Acidovorax facilis CCTCC NO: M 209044. On the procedure: (§1) The kinetic parameters of the purified protein in example 3 were determined, using 1-cyanocyclohexylacetonitrile as the substrate and the pure enzyme solutions of AcN-F168V, G180D, A205C, G180F, and G180D/A205C as the catalyst.
(§2) 10 mL of the reaction system was as follows: the purified enzyme solution (165 U/g) was diluted 10 times with a pH 7.0, 20 mM phosphate buffer and the final concentration of the purified nitrilase was 0.2 mg/mL. The resulting enzyme solution was put into a reaction container, added with the substrate at final concentrations of 6.75-40.49 mM (6.75, 13.50, 20.24, 26.99, 33.74 and 40.49 mM, respectively) and added with a pH 7.0, 20 mM phosphate buffer as the reaction medium up to 10 mL, the reaction solution was reacted at 45° C. and 600 rpm for 5 min, 500 μL of the sample was taken out, 500 μL of 2 M HCl was added to terminate the reaction, and the concentration of 1-cyanocyclohexyl acetic acid in the reaction solution was determined by HPLC (The detection and analysis conditions are the same as that in example 4).
(§3) Collected test data was used to conduct nonlinear fitting by Origin, thereby obtaining the Km value and Kcat value of the nitrilase E. coli BL21 (DE3)/pET-28b (+)-AcN-F168V and its combinatorial mutants E. coli BL21 (DE3)/pET-28b (+)-AcN-G180D, E. coli BL21 (DE3)/pET-28b (+)-AcN-G180F, E. coli BL21 (DE3)/pET-28b (+)-AcN-A205C and E. coli BL21 (DE3)/pET-28b (+)-AcN-G180D/A205C as shown in table 2.

For data set [2], the system named is N#CCC1(C#N)CCCCC1. Briefly: Kinetic parameters of the nitrilase mutant A205C. Format: biochemical, Acidovorax facilis CCTCC NO: M 209044. The following applies: other: A205C, pH 7.0, 20 mM phosphate buffer, 45° C., 6.75-40.49 mM substrate. On the procedure:
as §1, §2, §3

The target of data set [3] is Acidovorax facilis CCTCC NO: M 209044 nitrilase AcN-F168V (SEQ ID No. 2) mutant G180D/A205C, SEQ ID No. 10 (Acidovorax facilis, UniProt Q1W2L4). The experiment in a line: Kinetic parameters of the nitrilase double mutant G180D/A205C. Format: biochemical. The following applies: pH 7.0, 20 mM phosphate buffer, 45° C. As for the experimental part:
as §1, §2, §3

Data set [4] has as its system N#CCC1(C#N)CCCCC1. Briefly: Kinetic parameters of the nitrilase mutant G180F. The format is biochemical, Acidovorax facilis CCTCC NO: M 209044. The following applies: other: G180F, pH 7.0, 20 mM phosphate buffer, 45° C., 6.75-40.49 mM substrate. As for the experimental part:
as §1, §2, §3

For data set [5], the system named is N#CCC1(C#N)CCCCC1. Briefly: Kinetic parameters of the nitrilase mutant G180D. The format is biochemical, Acidovorax facilis CCTCC NO: M 209044. The following applies: other: G180D, pH 7.0, 20 mM phosphate buffer, 45° C., 6.75-40.49 mM substrate. As for the experimental part:
as §1, §2, §3

For “Acidovorax facilis CCTCC NO: M 209044 nitrilase AcN-F168V, SEQ ID No. 2 (Acidovorax facilis; F168V)”, in the data set on N#CCC1(C#N)CCCCC1 [1], the Km is given as 16.25 ± 5.37 mM, the Vmax came to 1530 µmol/min/mg and the kcat was 5573 s⁻¹.
“Acidovorax facilis CCTCC NO: M 209044 nitrilase AcN-F168V (SEQ ID No. 2) mutant A205C, SEQ ID No. 8 (Acidovorax facilis; A205C/F168V)”: in the data set on N#CCC1(C#N)CCCCC1 [2], the Km is 3.40 ± 0.78 mM, the Vmax amounted to 1630 µmol/min/mg and the kcat amounted to 8317 s⁻¹.
Take `N#CCC1(C#N)CCCCC1` [1-cyanocyclohexylacetonitrile]: in data set [3], the Kcat came out at 24139 s⁻¹, the Kcat/Km turned out to be 341.236 M⁻¹ s⁻¹ and the Vmax is given as 4.78 ± 0.73 mmolmg^−1min^−1. Besides, the Km in data set [3] (6.75-40.49 mM substrate) was 19.7 ± 7.4 mM.
On to “Acidovorax facilis CCTCC NO: M 209044 nitrilase AcN-F168V (SEQ ID No. 2) mutant G180F, SEQ ID No. 6 (Acidovorax facilis; F168V/G180F)”, for which, in the data set with N#CCC1(C#N)CCCCC1 [4], the Km was found to be 5.88 ± 1.58 mM, the Vmax was found to be 2350 µmol/min/mg and the kcat turned out to be 7612 s⁻¹.
Take “Acidovorax facilis CCTCC NO: M 209044 nitrilase AcN-F168V (SEQ ID No. 2) mutant G180D, SEQ ID No. 4 (Acidovorax facilis; F168V/G180D)”: in the data set on N#CCC1(C#N)CCCCC1 [5], the Km is 3.21 ± 1.41 mM, the Vmax worked out at 1980 µmol/min/mg and the kcat was found to be 6624 s⁻¹.
